The target of assay [1] is α-RSV (clone B21M) human IgG1 F405L lacking hinge disulfides (C226S/C229S), half-Ab (human). Description: hydrophobic interaction chromatography; products of cFAE analysed for the share of bsAb.
The target is the same in assay [2]. The experiment in a line: FRET or BRET; Fab-arm exchange between donor (Alexa Fluor 488)- and acceptor (Alexa Fluor 594)-labelled IgG1C→S Abs, 200 nM each, PBS, 25 °C, no reductant; monoexponential exchange rate taken as the rate of dissociation of the full Ab (half-Ab dimer) into half-Abs. A general note: BRET reads energy transfer from a luciferase to a nearby fluorophore.

Assay [3] deals with α-gp120 (clone b12) human IgG1 K409R lacking hinge disulfides (C226S/C229S), half-Ab (human). Described as above.
Assay [4] addresses Alexa Fluor 488-labelled F405L half-Fc (IdeS fragment of α-RSV F405L IgG1WT) (human). The experiment in a line: fluorescence correlation spectroscopy (FCS); constant 50 pM Alexa Fluor 488-labelled half-Fc, 1:3 or 1:4 dilutions of unlabelled half-Ab (IgG1C→S), equilibrated at room temperature overnight; diffusion times of all four half-Fc/half-Ab combinations globally fitted with one KD each for F405L homodimerisation, K409R homodimerisation and heterodimerisation.

Assay [5] deals with Alexa Fluor 488-labelled K409R half-Fc (IdeS fragment of α-gp120 K409R IgG1WT) (human). Described as above.

A value given as a limit tells only on which side of the number the result lay.

Sequence of α-RSV (clone B21M) human IgG1 F405L lacking hinge disulfides (C226S/C229S), half-Ab (human) (heavy, as listed by the source, chain 1 of 2): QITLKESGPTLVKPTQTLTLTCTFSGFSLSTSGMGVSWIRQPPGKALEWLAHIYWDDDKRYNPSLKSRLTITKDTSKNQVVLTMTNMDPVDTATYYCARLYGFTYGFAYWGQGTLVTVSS
Sequence of α-RSV (clone B21M) human IgG1 F405L lacking hinge disulfides (C226S/C229S), half-Ab (human) (light, as listed by the source, chain 2 of 2): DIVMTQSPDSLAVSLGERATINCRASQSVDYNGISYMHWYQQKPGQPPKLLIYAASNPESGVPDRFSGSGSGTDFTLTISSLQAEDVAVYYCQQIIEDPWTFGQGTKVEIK

With “α-gp120 (clone b12) human IgG1 K409R lacking hinge disulfides (C226S/C229S), half-Ab (antibody)”, the percent bsAb after cFAE in assay [1] was > 90%. Besides, the figures for the koff in assay [2] and in assay [3] were 0.000198 s⁻¹ and 0.000673 s⁻¹, respectively. Also, the values for the Kd in assay [4] and in assay [5] were 0.0656 nM and 0.337 nM, respectively.

The values are drawn from paper PMC5767869.
